Laboratory results reported in patent US11739333B2, “Regulation of gene expression by aptamer-modulated RNase p cleavage” (MeiraGTx UK II Limited, priority 2017, dated 2023).

Test system: luciferase target gene expression in HEK 293 cells (aptamer-modulated RNase P cleavage of mRNA)
Test: Firefly luciferase assay of transfected cells treated with or without aptamer ligand
Format: cell-based
Method: Firefly luciferase assay of cultured cells: 3.5×10^4 HEK 293 cells were plated in 96-well flat bottom plate the day before transfection. Plasmid DNA (500 ng) was added to a tube or a 96-well U-bottom plate. Separately, TransIT-293 reagent (Minis; 1.4 μL) was added to 50 μL opti-mem I media (Life Technologies) and allowed to sit for 5 minutes at room temperature (“RT”). Then, 50 μL of this diluted transfection reagent was added to the DNA, mixed, and incubated at RT for 20 min. Finally, 7 μL of this solution was added to a well of cells in a 96-well plate. 4 hours after transfection, medium containing transfection solution was replaced with fresh medium. 24 hours after media change, plates were removed from the incubator, and equilibrated to RT for several minutes on a lab bench, then aspirated. Glo-lysis buffer (Promega, 100 μL, RT) was added, and the plates allowed to remain at RT for at least 5 minutes. Then, the well contents were mixed by 50 μL trituration, and 20 μL of each sample was mixed with 20 μL of bright-glo reagent (Promega) that had been diluted to 10% in glo-lysis buffer. 96 wells were spaced on an opaque white 384-well plate. Following a 5-min incubation at RT, luminescence was measured using a Tecan machine with 500 mSec read time. The luciferase activity was expressed as mean arbitrary light unit (ALU)±S.D.
Plasmid constructs: oligonucleotide fragments containing mascRNA and guanine aptamer sequences (Mandal, M, et al., Cell 113, 577-586 (2003), incorporated herein by reference) were synthesized (IDT) and cloned into a luciferase (Luci) expression construct (Con8) in the 3′ UTR region using compatible restriction sites BamHI and XhoI. All the constructs were verified by DNA sequencing (Genewiz).
Firefly luciferase assay of cultured cells: cells were transfected as described in Example 1. Four hours after transfection, medium containing transfection solution was replaced by medium with either 0.5% DMSO as solvent control or 500 μM guanosine (Sigma) as aptamer ligand. Twenty-two to twenty-four hours after treatment, a luciferase assay was performed as described in Example 1.
Plasmid construction: a DNA fragment containing sequences for the guanine aptamer xpt-G and human arginine pre-tRNA (Nashimoto M. N. et al. Long 5′ leaders inhibit removal of a 3′ trailer from a precursor tRNA by mammalian tRNA 3′ processing endoribonuclease. Nucleic Acids Research, 1999; 27(13): 2770-2776) were synthesized (IDT). The synthesized DNA fragments were digested with BamHI and XhoI restriction enzymes and cloned into the Con8 construct digested with the same restriction enzymes. Construct sequences were verified by DNA sequencing (Genewiz).
Plasmid construction: a DNA fragment containing sequences for the adenine aptamer ydhl-A (M. Mandal and R. R. Breaker, Adenine riboswitches and gene activation by disruption of a transcription terminator. Nature Structural & Molecular Biology. 2004; 11: 29-35, incorporated herein by reference) or theophylline aptamer (G. R. Zimmerman, et al. Interlocking structural motifs mediate molecular discrimination by a theophylline-binding RNA. Nature Structural Biology. 1997; 4: 644-649, incorporated herein by reference), and mascRNA sequence were synthesized (IDT). The synthesized DNA fragments were digested with BamHI and XhoI restriction enzymes and cloned into Con8 digested with the same restriction enzymes. Construct sequences were verified by DNA sequencing (Genewiz).
Four hours after transfection, the media was aspirated, and new media with NaOH (1 mM) as solvent or 1 mM adenine (Calbiochem), or 3 mM theophylline (Sigma) was added. The induction fold was expressed as the quotient of luciferase activity obtained in the presence of aptamer ligand divided by the value obtained in the absence of the aptamer ligand. […]

| Molecule | basal level luciferase activity (absence of guanine) | induction fold of luciferase, with guanine versus without guanine (guanine treatment) | also measured |
| --- | --- | --- | --- |
| GM8: SEQ ID NO: 10; 3 nucleotides between effector region stem and mascRNA acceptor stem (nucleic acid) CCTCATAAAGGCCAAGAAGGGCGGAAAGATCGCCGTGTAAGGATCCAAGACGAGCTGTACAAGTAAAGAAGAGCTAATGTATAATCGCGTGGATATGGCACGCAAGTTTCTACCGGGCACCGTAAATGTCCGACTACATTAGCCGAGACGCTGGTGGCTGGCACTCCTGGTTTCCAGGACGGGGTTCAAGTCCCTGCGGTGTCTTTGCTTGGATCGGCCGCGACTCTAGAGTCGACCTGCAGGCATGCAAGCTTCAGCTGCTCGAGGGCCCAGATCTAATTCACCCCACCAGTGCAGGCTGCCTATCAG |  |  | luciferase expression in response to guanine treatment (guanine treatment): upregulate luciferase expression |
| MG3: SEQ ID NO: 12; MG1 variant with 4 alternatively shared nucleotides (nucleic acid) CCTCATAAAGGCCAAGAAGGGCGGAAAGATCGCCGTGTAAGGATCCAAGACGAGCTGTACAAGTAAAGCGGCCAATTCGGACAAAAACGAGACGCTGGTGGCTGGCACTCCTGGTTTCCAGGACGGGGTTCAAGTCCCTGCGGTGTCTGTATAATCGCGTGGATATGGCACGCAAGTTTCTACCGGGCACCGTAAATGTCCGACTACAGACAATCTAGAGTCGACCTGCAGGCATGCAAGCTTCAGCTGCTCGAGGGCCCAGATCTAATTCACCCCACCAGTGCAGGCTGCCTATCAG | modest decrease | approximately 2 fold |  |
| TheoM: SEQ ID NO: 16; theophylline aptamer and mascRNA in luciferase 3' UTR (nucleic acid) CCTCATAAAGGCCAAGAAGGGCGGAAAGATCGCCGTGTAAGGATCCAAGACGAGCTGTACAAGTAAAGCGGCCTAATGTGATACCAGCCGAAAGGCCCTTGGCAGCACATTAGACGCTGGTGGCTGGCACTCCTGGTTTCCAGGACGGGGTTCAAGTCCCTGCGGTGTCTTTGCTTGGATCGGCCGCGACTCTAGAGTCGACCTGCAGGCATGCAAGCTTCAGCTGCTCGAGGGCCCAGATCTAATTCACCCCACCAGTGCAGGCTGCCTATCAG |  |  | fold increase in luciferase expression with theophylline (3 mM theophylline vs solvent): 4.1 fold; luciferase level as % of the control Con8 construct (absence of theophylline treatment): approximately 43.4% |
| GArg: SEQ ID NO: 14; GM1 with mascRNA replaced by human arginine tRNA sequence (nucleic acid) CCTCATAAAGGCCAAGAAGGGCGGAAAGATCGCCGTGTAAGGATCCAAGACGAGCTGTACAAGTAAAGAAGACTGCGACGATAATCGCGTGGATATGGCACGCAAGTTTCTACCGGGCACCGTAAATGTCCGACTCGTCGCAGGGCCAGTGGCGCAATGGATAACGCGTCTGACTACGGATCAGAAGATTCCAGGTTCGACTCCTGGCTGGCTCGGTGTAGGCCGCGACTCTAGAGTCGACCTGCAGGCATGCAAGCTTCAGCTGCTCGAGGGCCCAGATCTAATTCACCCCACCAGTGCAGGCTGCCTATCAG |  | 1.6 fold | basal level luciferase expression as % of control construct Con8 (absence of guanine): approximately 50% |
| MG4: SEQ ID NO: 13; MG1 variant with 3 alternatively shared nucleotides (nucleic acid) CCTCATAAAGGCCAAGAAGGGCGGAAAGATCGCCGTGTAAGGATCCAAGACGAGCTGTACAAGTAAAGCGGCCAATTCGGACAAAAACGAGACGCTGGTGGCTGGCACTCCTGGTTTCCAGGACGGGGTTCAAGTCCCTGCGGTGTCTAGTATAATCGCGTGGATATGGCACGCAAGTTTCTACCGGGCACCGTAAATGTCCGACTACTAGACTTCTAGAGTCGACCTGCAGGCATGCAAGCTTCAGCTGCTCGAGGGCCCAGATCTAATTCACCCCACCAGTGCAGGCTGCCTATCAG | modest decrease | approximately 2 fold |  |
